Experiment [1] addresses T1, GFP-tagged CSF1R immunoprecipitated from HEK293T cells (UniProt P09581).
T1 sequence: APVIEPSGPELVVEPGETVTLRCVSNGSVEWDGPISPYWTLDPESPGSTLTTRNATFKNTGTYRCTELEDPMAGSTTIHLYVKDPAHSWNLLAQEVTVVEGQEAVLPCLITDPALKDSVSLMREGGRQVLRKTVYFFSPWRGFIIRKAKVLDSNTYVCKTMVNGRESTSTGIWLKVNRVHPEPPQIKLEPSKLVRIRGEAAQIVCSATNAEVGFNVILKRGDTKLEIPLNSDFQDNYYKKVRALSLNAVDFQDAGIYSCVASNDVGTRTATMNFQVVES

Experiment [2] deals with T2, GFP-tagged CSF1R immunoprecipitated from HEK293T cells (UniProt P09581 20-298).
T2 sequence: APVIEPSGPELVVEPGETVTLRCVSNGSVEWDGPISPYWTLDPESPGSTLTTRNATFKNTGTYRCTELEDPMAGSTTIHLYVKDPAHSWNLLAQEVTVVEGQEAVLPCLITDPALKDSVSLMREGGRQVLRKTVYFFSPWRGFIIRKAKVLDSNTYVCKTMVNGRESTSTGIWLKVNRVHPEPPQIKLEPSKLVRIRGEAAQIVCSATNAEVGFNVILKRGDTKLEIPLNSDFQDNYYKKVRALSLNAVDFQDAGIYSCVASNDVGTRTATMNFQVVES
Put plainly: cell-based or functional assay.

The target in experiment [3] is T3, CSF1R protein immobilised for SPR (UniProt P09581 20-298).
T3 construct: CSF1R protein used at 30 µg/ml for covalent immobilisation
T3 sequence: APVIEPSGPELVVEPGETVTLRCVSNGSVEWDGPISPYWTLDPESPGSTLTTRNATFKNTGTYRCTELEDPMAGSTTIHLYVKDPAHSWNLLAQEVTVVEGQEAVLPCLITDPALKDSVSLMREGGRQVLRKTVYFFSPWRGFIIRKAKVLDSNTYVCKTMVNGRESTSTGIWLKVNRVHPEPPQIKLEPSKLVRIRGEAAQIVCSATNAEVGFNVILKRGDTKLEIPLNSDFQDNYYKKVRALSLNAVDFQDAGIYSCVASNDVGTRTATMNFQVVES
As to the kind of experiment: SPR; Open SPR (Nicoya); CSF1R (30 µg/ml) covalently immobilised on COOH sensor chip by EDC/NHS; parvalbumin injected from low to high concentrations, 20 µl/min for 5 min; analysed with Trace Drawer. The conditions noted are these: both partners purified.

B1: Macrophage colony-stimulating factor (ligand)
chain: KEVSEHCSHMIGNGHLKVLQQLIDSQMETSCQIAFEFVDQEQLDDPVCYLKKAFFLVQDIIDETMRFKDNTPNANATERLQELSNNLNSCFTKDYEEQNKACVRTFHETPLQLLEKIKNFFNETKNLLEKDWNIFTKNCNNSFAKCSSRDVVTKPDCNCLYPKATPSSDPASASPHQPPAPSMAPLAGLAWDDSQRTEGSSLLPSELPLRIEDPGSAKQRPPRSTCQTLESTEQPNHGDRLTEDSQPHPSAGGPVPGVEDILESSLGTNWVLEEASGEASEGFLTQEAKFSPSTPVGGSIQAETDRPRALSASPFPKSTEDQKPVDITDRPLTEVNPMRPIGQTQNNTPEKTDGTSTLREDHQEPGSPHIATPNPQRVSNSATPVAQLLLPKSHSWGIVLPLGELEGKRSTRDRRSPAELEGGSASEGAARPVARFNSIPLTDTGHVEQHEGSSDPQIPESVFHLLVPGIILVLLTVGGLLFYKWKWRSHRDPQTLDSSVGRPEDSSLTQDEDRQVELPV
In experiment [1], B1 had an ELK1-Luc reporter: concentration-response of MCSF on CSF1R activation in cells stably expressing CSF1R (EC50) of 0.36 nM.

B2: parvalbumin (recombinant protein) (natural protein, UniProt P32848 1-110, looked up)
chain: MSMTDVLSAEDIKKAIGAFAAADSFDHKKFFQMVGLKKKNPDEVKKVFHILDKDKSGFIEEDELGSILKGFSSDARDLSAKETKTLLAAGDKDGDGKIGVEEFSTLVAES
notes: parvalbumin, recombinant; The only source printed for a recombinant parvalbumin is human parvalbumin 15333-H08E (Sino Biological), named for the PBMC experiments only; also called PVALB; rPVLAB; source: recombinant protein
In the case of B2, in experiment [2], the “ELK1-Luc reporter: concentration-response of parvalbumin on CSF1R activation in the presence of MCSF (IC50)” value came out at 3.26 nM. In experiment [3], this molecule came in with a Kd of 3650 nM.

Values taken from publication PMC9177846, “Targeting parvalbumin promotes M2 macrophage polarization and energy expenditure in mice” (Nature Communications, 2022).
